Data: US20220380473A1, “ANTI-GAL3 ANTIBODIES AND USES THEREOF” (TrueBinding, Inc., priority 2019, published 2022)
“Also recorded” adds a separate entry of the source.

Legend:
[1] = system: mouse unilateral ureteral obstruction (UUO) model of kidney fibrosis; test: Mouse UUO model of kidney fibrosis (Example 32); assay type: in vivo; conditions: treated one day before UUO; for KIM-1 levels / serum NGAL levels: vs isotype control; for picosirius red staining of kidney, image quantification: isotype 2.65%
Excerpt: To further evaluate the ability of GAL3-targeted antibodies with the ability to block TIM3-GAL3 assembly to impact fibrosis, we evaluated the impact of humanized IMT001-4 and IMT006-1 in the mouse unilateral ureteral obstruction (UUO) model of kidney fibrosis. Briefly, 8-week-old C57BL/6J male mice were divided into sham, UUO with HuIgG4−, and UUO with HuIMT001-4, HuIMT006-1, and UUO with metformin-treatment. HuIgG4, HuIMT001-4 and HuIMT006-1 were each administered by intraperitoneal route at 10 mg/kg Q2Dx3 whereas metformin (500 mg/kg/day) was administered to mice dissolved in drinking water. In some settings therapeutic antibodies or metformin was administered 1 day before UUO, whereas in other experiments therapeutic antibodies or metformin was administered 1 day after UUO. After 7 days of UUO surgery, mice were sacrificed, left kidney was harvested and fixed with 4% paraformaldehyde for immunohistochemistry (IHC) and blood was collected in Heparin-EDTA tubes for blood biochemistry analysis. Levels of plasma mouse TIM-1/KIM-1/HAVCR were measured using a commercial ELISA kit (Catalog #MKM100; R&D Systems, Minneapolis, Minn.) according to the protocol provided by the manufacturer. Levels of plasma mouse Lipocalin-2/NGAL were measured using a commercial ELISA kit (Catalog #DY1857; R&D Systems, Minneapolis, Minn.) according to the protocol provided by the manufacturer. 5 um sections of fixed kidney specimens were produced and processed for picosirius red staining as described for liver specimens above.
To evaluate the robustness of TIM3-GAL3 blocking antibodies in reducing kidney fibrosis, the ability of mIMT001 to inhibit fibrosis when administered one day after UUO surgery was evaluated. Following UUO surgery and treatment with isotype or control antibodies, kidney specimens were harvested and stained by IHC for Collagen 1a1 (Col1a1), a marker of kidney fibrosis.

Galectin-3 = Galectin-3 (Homo sapiens, UniProt P17931); test: SPR (BiacoreT200) binding affinity; conditions: 25° C., read-out: hGal-3 KD
Chain of Galectin-3 (P17931 whole entry): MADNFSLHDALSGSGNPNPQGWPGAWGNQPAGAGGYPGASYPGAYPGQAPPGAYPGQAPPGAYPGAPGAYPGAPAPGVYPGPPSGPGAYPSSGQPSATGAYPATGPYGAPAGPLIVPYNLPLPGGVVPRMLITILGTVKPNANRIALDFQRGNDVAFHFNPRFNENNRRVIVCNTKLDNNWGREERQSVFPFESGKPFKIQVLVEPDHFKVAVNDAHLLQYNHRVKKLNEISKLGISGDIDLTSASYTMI
Experimental: GAL3-binding antibodies were evaluated for their binding affinity by SPR. Kinetics experiments were performed on BiacoreT200 at 25° C. in high performance mode. Ligand proteins, purified antibodies were captured onto a CM5 chip coupled with anti-human Fc or anti-mouse Fc antibody, three antibodies at a time onto flow cell #2, 3, and 4, respectively, while flow cell #1 was used as reference. The analyte Galectin-3 in HBS-EP buffer was injected over all four flow cells at concentrations of 100, 50, 25, 12.5, 6.25, 3.125 and 0 nM at a flow rate of 30 μL/min. The complex was allowed to associate and dissociate for 240 and 300 seconds, respectively. The surfaces were regenerated with a 30 second injection of 10 mM Glycine pH 1.7 (flow rate 30 μL/min). The data were fit to a simple 1:1 interaction model using the global data analysis option available within BiacoreT200 Evaluation software V2.0. The affinity of Gal3 monoclonal antibodies was confirmed to be […] 30 nM for all antibodies studied (Table 24.1). Antibodies with affinity less than 2E-7 were selected for further characterization.

[2] = biological target: T1, association of GAL3 and TIM3 (Homo sapiens, UniProt P17931); test: GAL3-TIM3 blocking ELISA (Examples 24, 27); assay type: binding; conditions: for GAL3-TIM3 Blocking @ 3 ug/mL: 3 ug/mL antibody
T1 construct: full-length human Galectin-3 protein (Acro Biosystems, GA3-H5129); linker-spaced 6-histidine tag; purchased Acro Biosystems GA3-H5129 (Gal3); TM3-H5229 (TIM-3)
T1 sequence (P17931 2-250 limits assumed): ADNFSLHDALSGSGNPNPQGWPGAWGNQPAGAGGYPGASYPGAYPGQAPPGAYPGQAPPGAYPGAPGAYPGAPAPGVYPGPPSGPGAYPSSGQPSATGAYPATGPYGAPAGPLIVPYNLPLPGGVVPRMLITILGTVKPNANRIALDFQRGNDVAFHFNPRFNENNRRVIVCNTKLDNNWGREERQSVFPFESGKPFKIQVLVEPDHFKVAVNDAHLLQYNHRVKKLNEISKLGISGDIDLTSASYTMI
Experimental: Positively scoring wells were evaluated for the ability to block association of GAL3 and TIM3. To identify GAL3-targeted antibodies with the ability to block the interaction of GAL3 and TIM3, purified GAL3 and TIM3 proteins were incubated in the presence of GAL3-immunization hybridoma supernatants described above, or without antibody, and protein interaction was evaluated by ELISA. Human Galectin-3 protein (Acro Biosystems, GA3-H5129) was diluted in PBS (Corning, 21-030-CM) to a concentration of 3 μg/ml and added to the wells of a 96-well ELISA plate (Thermo Fisher, 44-2404-21). After incubating the plate at 4° C. overnight, the plate was washed three times with PBST (PBS with 0.05% Tween 20 [VWR, 0777]). The plate was then blocked for an hour with 2% BSA (EMD Millipore, 126609) in PBST at room temperature with gentle rocking. Thereafter, the 2% BSA in PBST was discarded and antibody or inhibitor (3-fold dilutions beginning at 20 μg/ml, 60 μg/ml, or 180 μM) in 2% BSA in PBST was added to the wells. Afterwards, 2 μg/ml of human TIM3 (Aero Biosystems, TM3-H5229) in 2% BSA in PBST was added to the antibody or inhibitor in the wells in a 1:1 ratio. The plate was incubated for an hour at room temperature with gentle rocking. Thereafter, the plate was washed three times with PBST, and 0.3 μg/ml of human TIM3 Biotinylated Antibody (R&D Systems, BAF2365) in 2% BSA in PBST was added to the wells. The plate was incubated for an hour with gentle rocking and then washed three times with PBST. Avidin-HRP (1:2000) was then added to the wells. The plate was incubated at room temperature for an hour with gentle rocking and then washed three times with PBST. TMB substrate (Thermo Scientific, 34029) was then added to each well. The reaction was stopped with 1M HCl (JT Baker, 5620-02) and read using a plate reader (Molecular Devices) at absorbance of 450 nm.

hGal3 peptide = test: Gal3 peptide library ELISA (Example 25); assay type: binding, human; conditions: for Gal3 peptide bound: peptide array ELISA; for Epitope Mapping: hGal3 peptide No. bound
Experimental: To identify the epitopes to which Gal3 antibodies with and without Gal3-TIM3 blocking activity bound, a library of 20 amino acid peptides representing portions of Gal3, summarized in Table 24.1, was produced and the ability to bind Gal3 antibodies was evaluated by ELISA.
At least 2 μg/ml of hGal3 peptide in 50 μl of PBS or 0.1 μg/ml of full-length human Gal3 protein (GenScript) and human Galectin-3 protein (Acro Biosystems, GA3-H5129) were diluted in PBS (Corning, 21-030-CM) to concentrations of at least 2 μg/ml or 0.1 μg/ml, respectively, and added to the wells of a 96-well ELISA plate (Thermo Fisher, 44-2404-21). After incubating the plate at 4° C. overnight, the plate was washed three times with PBST (PBS with 0.05% Tween 20 [VWR, 0777]). The plate was then blocked for an hour with 2% BSA (EMD Millipore, 126609) in PBST at room temperature with gentle rocking. Thereafter, the 2% BSA in PBST was discarded and human Galectin-3 hybridoma supernatants or antibodies were diluted in 2% BSA in PBST to concentrations of at least 0.1 μg/ml and added to the wells. The plate was incubated for an hour at room temperature with gentle rocking and then washed three times with PBST. Afterwards, Goat Anti-Mouse IgG-HRP (Jackson ImmunoResearch, 115-036-1461) or Goat Anti-Rat IgG HRP (abcam, ab205720) diluted in 2% BSA in PBST (1:4000) were added to the wells. The plate was incubated for 30 minutes to 1 hour at room temperature with gentle rocking and then washed three times with PB ST. TMB substrate (Thermo Scientific, 34029) was then added to each well. The reaction was stopped with 1M HCl (JT Baker, 5620-02) and read using a plate reader (Molecular Devices) at absorbance of 450 nm.

human Gal3-His = human Gal3-His (Homo sapiens, UniProt P17931); test: Antibody binning by biolayer interferometry (Gator); assay type: binding; conditions: antibody competition
Chain of human Gal3-His (P17931 whole entry): as the sequence (P17931 whole entry) above
Experimental: To determine whether Gal3-binding antibodies with Gal3-TIM3 blocking activity bind to the same or overlapping regions of the Gal3 molecule, antibody binning assays were performed to assess the ability of antibodies to simultaneously bind Gal3. Amine-reactive probes were loaded onto a Gator biosensor (Probe Life, Palo Alto, Calif.), equilibrated in dH20 for 60 seconds, dipped into 100 μl EDC 0.2M/NHS 0.05M activation buffer for 30 seconds, then dipped into a solution of […] human Gal3-His in 10 mM NaOAc buffer, pH 5 until binding was saturated, and quenched in 1 M ethanolamine pH 8.5 for 300 seconds. Following Gal3-His loading, tips were dipped in 20 μg/mL saturating antibody, then successively dipped into 5 μg/mL competing antibody.

Row | Molecule | picosirius red staining of kidney, qualitative [1] | KIM-1 levels [1] | serum NGAL levels [1] | picosirius red staining of kidney, image quantification [1] [%] | Kd (Galectin-3) [nM] | GAL3-TIM3 Blocking @ 3 ug/mL [2] [%] | Gal3 peptide bound (hGal3 peptide) | Epitope Mapping (hGal3 peptide) | IC50 ([2]; titration series, purified GAL3 and TIM3) [nM] | Bin (human Gal3-His) | assembly of GAL3 and TIM3, % of levels observed in the absence of a GAL3-targeted antibody ([2]; 3 μg/mL (FIG. 24))
1 | CN(C)C(=N)N=C(N)N [metformin, reference compound] | substantial reductions in picosirius red staining | the reduction was not statistically significant | significantly impact NGAL levels | 1.83 | – | – | – | – | – | – | –
2 | 13A12.2E5: murine anti-Gal3 antibody (antibody, V domains shown) VH: QIQLVQSGPELKKPGETVKISCKTSGYKFKTYVMSWVKQAPGKALKWMGWINTYSGVPTYADDFKGRFAFSLETSASTAYLEIINLKNEDTATYFCARDGNYGDPMDYWGQGTSVTVSS VL: DVVMTQTPLTLSVAIGQPASISCKSSQSLLYTNGKTYLNWLLQRPGQSPKRLIYLLSKLDSGVPDRFSASGSGTDFTLKISRVEAEDLGVYYCLQSTHFPLTFGAGTKLEMK | – | – | – | – | 8.2 | 35 | peptide 4; also recorded: peptide 6 | – | – | – | –
3 | 13G4.2F8: murine anti-Gal3 antibody (antibody, V domains shown) VH: QVQLQQPGAELVKPGASVKLSCKASGYTFTSYWMHWVKQRPGQGLEWIGMIHPNSGSTDYNEKFKNKATLNVDKSSSTAYIQLSSLTSEDSAVYYCTRWGIYYYARDYWGQGTTLTVSS VL: DIVMTQSQKFMSTSVGERVSITCKASQNVGTNVAWYQQKAGQSLELLIYGASNRHTGVPDRFTGSGSGTDFTLTITNVQSEDMTNYFCEQYSNFPLTFGAGTKLELK | – | – | – | – | 2.53 | 0 | – | Non-linear | – | – | –
4 | IMT006-1: humanized anti-Gal3 antibody derived from 4A11.2B5 (antibody, V domains shown, VH of IMT006-1; VL of IMT006-1, humanized anti-Gal3 antibody derived from 4A11.2B5) VH: QVQLVQSGAEVKKPGASVKVSCKASGYSFTNYYMHWVRQAPGQGLEWMGWIYPGSGNTNYNEKFQGRVTMTADTSISTAYMELSRLRSDDTAVYYCSTAPGGFDVWGQGTTVTVSS VL: DIVMTQTPLSLSVTPGQPASISCKSSKSLLHSDGITYLYWYLQKPGQSPQLLIYRMSNLASGVPDRFSGSGSGTDFTLKISRVEAEDVGVYYCAQMLEFPLTFGQGTKLEIK | substantial reductions in picosirius red staining | significantly reduced | significant reductions in serum NGAL levels | 1.26 | – | – | – | – | 26.5 | – | –
5 | 2D10.2B2: murine anti-Gal3 antibody (antibody, V domains shown) VH: QVQLQQSGPELVKPGASVKISCKASGYTFTDYYINWVKQRPGQGLEWIGWIYPGSNDTKYNEKFKGKATLTVDTSSSTAYMQLGSLTSEDSAVYFCANYFGCSGWFFDVWGTGTTVTVSS VL: DIVMTQAAFSNPVTLGTSASISCRSSKSLLHSDGITYLYWYLQRPGQSPQLLIYRMSNLASGVPDRFSGSGSGTDFTLRISRVEAEDVGVYYCAQMIEFPLTFGAGTILELK | – | – | – | – | 0.753 | 86 | peptide 6 | 6 | – | 3 | –
6 | 846.2H3: murine anti-Gal3 antibody (antibody, V domains shown) VH: QIQLVQSGPELKKPGETVKISCKASGYTFTNYGMNWVKQAPGKGLKWMGWINTYTGEPSYADDFKGRFAFSLETSASTAYLQINNLKNEDMATYFCARWGGYDGDYYAMDYWGQGTSVTVSS VL: NIMMTQSPSSLAVSAGEKVTMSCKSSQSVLYSSNQKNYLAWYQQKPGQSPKLLIYWASTRESGVPDRFTGSGSGTDFTLTISSVQPEDLAVYYCHQYLSSLTFGAGTKLELK | – | – | – | – | 10.2 | 100 | peptide 6 | 6 | – | 3 | less than 5%
